Test results taken from paper PMC1618392, “The crystal structure of superoxide dismutase from Plasmodium falciparum” (BMC Structural Biology, 2006).

Molecular target: the molecule itself
Assay: AUC; sedimentation equilibrium, Beckman Optima XL/I, AN-50Ti rotor; 300 mM NaCl, 50 mM Tris-HCl, pH 7.5

B1: Plasmodium falciparum cytosolic iron superoxide dismutase (enzyme, Plasmodium falciparum (3D7), UniProt Q8IAY6 1-198, looked up)
chain: MVITLPKLKYALNALSPHISEETLNFHYNKHHAGYVNKLNTLIKDTPFAEKSLLDIVKESSGAIFNNAAQIWNHTFYWDSMGPDCGGEPHGEIKEKIQEDFGSFNNFKEQFSNILCGHFGSGWGWLALNNNNKLVILQTHDAGNPIKDNTGIPILTCDIWEHAYYIDYRNDRASYVKAWWNLVNWNFANENLKKAMQK
notes: cytosolic iron superoxide dismutase of Plasmodium falciparum (3D7), residues 1-198, amplified from genomic DNA; The calculated monomer mass is 23,799 Da; In the crystal Lys198 and the eight residues of the tag are not seen; also called PfFeSOD; PfSOD; source: E. coli BL21-CodonPlus, purified (Ni-NTA, Superdex 75 size exclusion)
For B1, which “stoichiometry N” value is on record?
Its value is 2.
